Consider one molecule from publication PMC9375587.

The assay concerns the target Myeloperoxidase (MPO), native, dimeric (human) (UniProt P05164). The assay is described as follows: SPR.

B1: Ceruloplasmin (CP), intact (non-proteolyzed) (natural protein)
chain: KEKHYYIGIIETTWDYASDHGEKKLISVDTEHSNIYLQNGPDRIGRLYKKALYLQYTDETFRTTIEKPVWLGFLGPIIKAETGDKVYVHLKNLASRPYTFHSHGITYYKEHEGAIYPDNTTDFQRADDKVYPGEQYTYMLLATEEQSPGEGDGNCVTRIYHSHIDAPKDIASGLIGPLIICKKDSLDKEKEKHIDREFVVMFSVVDENFSWYLEDNIKTYCSEPEKVDKDNEDFQESNRMYSVNGYTFGSLPGLSMCAEDRVKWYLFGMGNEVDVHAAFFHGQALTNKNYRIDTINLFPATLFDAYMVAQNPGEWMLSCQNLNHLKAGLQAFFQVQECNKSSSKDNIRGKHVRHYYIAAEEIIWNYAPSGIDIFTKENLTAPGSDSAVFFEQGTTRIGGSYKKLVYREYTDASFTNRKERGPEEEHLGILGPVIWAEVGDTIRVTFHNKGAYPLSIEPIGVRFNKNNEGTYYSPNYNPQSRSVPPSASHVAPTETFTYEWTVPKEVGPTNADPVCLAKMYYSAVEPTKDIFTGLIGPMKICKKGSLHANGRQKDVDKEFYLFPTVFDENESLLLEDNIRMFTTAPDQVDKEDEDFQESNKMHSMNGFMYGNQPGLTMCKGDSVVWYLFSAGNEADVHGIYFSGNTYLWRGERRDTANLFPQTSLTLHMWPDTEGTFNVECLTTDHYTGGMKQKYTVNQCRRQSEDSTFYLGERTYYIAAVEVEWDYSPQREWEKELHHLQEQNVSNAFLDKGEFYIGSKYKKVVYRQYTDSTFRVPVERKAEEEHLGILGPQLHADVGDKVKIIFKNMATRPYSIHAHGVQTESSTVTPTLPGETLTYVWKIPERSGAGTEDSACIPWAYYSTVDQVKDLYSGLIGPLIVCRRPYLKVFNPRRKLEFALLFLVFDENESWYLDDNIKTYSDHPEKVNKDDEEFIESNKMHAINGRMFGNLQGLTMHVGDEVNWYLMGMGNEIDLHTVHFHGHSFQYKHRGVYSSDVFDIFPGTYQTLEMFPRTPGIWLLHCHVTDHIHAGMETTYTVLQNEDTKSG
For orientation: Kd means the free concentration of one partner at which half of the binding sites on the other are occupied at equilibrium, for simple one-to-one binding. As usually defined, the koff is a measure of how fast the partners let go of each other. A high value points to fast dissociation. The kon is a measure of how fast the partners come together. A higher kon goes with faster complex formation. Molecule B1 gave a Kd of 436 nM, a koff of 0.503 s⁻¹ and a kon of 11500 M⁻¹ s⁻¹.
